Our source for the stoichiometry N values is article PMC4241754.

This experiment deals with WlbA from Thermus thermophilus (Thermus thermophilus). The experiment in a line: crystal structure.

The term stoichiometry N denotes a count of units in the complex or per binding partner. With WlbA from Thermus thermophilus (enzyme), the stoichiometry N turned out to be 4.
